Molecular target: αVβ3 integrin receptor on choroid endothelial cells (RF/6A)
Test: cell-based or functional assay

IC50, MTT assay of RF/6A choroid endothelial cell proliferation induced by VEGF 165 (50 ng/ml) [nM] | inhibition of RF/6A cell proliferation at 15.6 nM (MTT assay) [%] | Substance
5.97 | 84 | transferrin-tumstatin protein (recombinant fusion, secreted from ARPE cells, histidine tagged) (from UniProt P02787 20-698; Q01955 1426-1670)
186 |  | tumstatin protein (recombinant, secreted from ARPE cells, histidine tagged) (from UniProt Q01955 1426-1670) (ligand)

From US20140179612A1
